Four molecules from article PMC8692152, “Cellular Id1 inhibits hepatitis B virus transcription by interacting with the novel covalently closed circular DNA-binding protein E2F4” can be followed below.

For series [1], the target named is T1, E2F4 1-88 (UniProt Q16254 1-88). As to the kind of experiment: ITC; SPR: Biacore X100, SA chip, DNA in PBS (137 mM NaCl, 2.7 mM KCl, 10 mM Na2HPO4, 2 mM KH2PO4, pH 7.4), protein 10-320 nM (Fig. S3D legend prints mM); ITC: 250 mM NaCl, 50 mM Tris-HCl pH 7.5; EMSA: Beyotime kit, 6% native gel; temperatures not stated. The following applies: protein: recombinant; tags: GST removed with 3C protease (ITC methods); pET28 His construct also described; chain copies: 2; blunt.
T1 sequence (Q16254 1-88): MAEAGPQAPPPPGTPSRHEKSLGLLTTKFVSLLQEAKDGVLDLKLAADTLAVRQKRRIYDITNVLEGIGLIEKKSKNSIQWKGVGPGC

Series [2] deals with T2, E2F4 1-180 (UniProt Q16254 1-180). As to the kind of experiment: SPR; random control DNA; SPR: Biacore X100, SA chip, DNA in PBS (137 mM NaCl, 2.7 mM KCl, 10 mM Na2HPO4, 2 mM KH2PO4, pH 7.4), protein 10-320 nM (Fig. S3D legend prints mM); ITC: 250 mM NaCl, 50 mM Tris-HCl pH 7.5; EMSA: Beyotime kit, 6% native gel; temperatures not stated. The following applies: protein: recombinant; tags: His (pET28a); chain copies: 2; label: 5'-biotin on sense strand; blunt.
T2 sequence (Q16254 1-180): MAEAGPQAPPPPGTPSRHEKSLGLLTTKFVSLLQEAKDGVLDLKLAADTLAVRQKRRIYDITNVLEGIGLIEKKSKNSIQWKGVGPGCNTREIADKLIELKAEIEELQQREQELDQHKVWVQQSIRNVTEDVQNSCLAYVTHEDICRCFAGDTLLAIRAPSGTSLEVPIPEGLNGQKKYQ

For series [3], the target named is T1, E2F4 1-88. As to the kind of experiment: ITC; error exceeds value; SPR: Biacore X100, SA chip, DNA in PBS (137 mM NaCl, 2.7 mM KCl, 10 mM Na2HPO4, 2 mM KH2PO4, pH 7.4), protein 10-320 nM (Fig. S3D legend prints mM); ITC: 250 mM NaCl, 50 mM Tris-HCl pH 7.5; EMSA: Beyotime kit, 6% native gel; temperatures not stated. The following applies: protein: recombinant; tags: GST removed with 3C protease (ITC methods); pET28 His construct also described; chain copies: 2; blunt.

Series [4] has as its target T2, E2F4 1-180. As to the kind of experiment: SPR; SPR: Biacore X100, SA chip, DNA in PBS (137 mM NaCl, 2.7 mM KCl, 10 mM Na2HPO4, 2 mM KH2PO4, pH 7.4), protein 10-320 nM (Fig. S3D legend prints mM); ITC: 250 mM NaCl, 50 mM Tris-HCl pH 7.5; EMSA: Beyotime kit, 6% native gel; temperatures not stated. The following applies: protein: recombinant; tags: His (pET28a); chain copies: 2; label: 5'-biotin on sense strand; blunt.

B1: Cp2 (ITC) (dsDNA)
DNA 1: TTAGATTAAAGGTCTTTGT
DNA 2: ACAAAGACCTTTAATCTAA
In the case of B1, in the series with E2F4 1-88 [1], the Kd was 10.3 ± 4.37 µM.

B2: Control-DNA-biotin (SPR) (dsDNA)
DNA 1: ATGATGTCACCACAAGAAGT
DNA 2: ACTTCTTGTGGTGACATCAT
As for B2, the Kd with E2F4 1-180 [2] is 0.136 µM.

B3: Cp2-mut (ITC) (dsDNA)
DNA 1: TTAGATTAAATTTCTTTGT
DNA 2: ACAAAGAAATTTAATCTAA
As to B3, the Kd with E2F4 1-88 [3] stood at 19.6 ± 31.2 µM.

B4: Biotin-Cp2 (SPR) (dsDNA)
DNA 1: TTAGATTAAAGGTCTTTGT
DNA 2: ACAAAGACCTTTAATCTAA
B4: the Kd with E2F4 1-180 [4] amounted to 0.0878 µM.
